# B1: ZNF649 (parent)
# chain: DECEKAYFYMSCLVKHKRIHSREK
# Variants of: B1
# Test: protein stability index of a GFP-peptide fusion (GPS, HEK-293T) (PSI 1-6); higher = more stable
# Settings: c terminus: a fixed tail appended
# 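Further: lentivirally expressed fusions sorted by FACS into six bins by GFP to DsRed ratio, PSI derived from sequencing read proportions per bin multiplied by bin number.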
row,Variant,protein stability index
1,DECEKAVFYMSCLVKHKRIHSREK [Y7V],2.68
2,DECEKAWFYMSCLVKHKRIHSREK [Y7W],2.25
3,DECEKASFYMSCLVKHKRIHSREK [Y7S],3.3
4,DECEKATFYMSCLVKHKRIHSREK [Y7T],3
5,DECEKAYFYMSCWVKHKRIHSREK [L13W],3.19
6,DECEKAYFYMSCYVKHKRIHSREK [L13Y],2.21
7,DECEKAYFYMSCKVKHKRIHSREK [L13K],2.68
8,DECEKAYFYMSCAVKHKRIHSREK [L13A],3.07
9,DECEKAYFYMSCHVKHKRIHSREK [L13H],2.95
10,DECEKAYFYMSCRVKHKRIHSREK [L13R],2.15
11,DECEKAYFYMSCVVKHKRIHSREK [L13V],2.98
12,DECEKAYFYMSCNVKHKRIHSREK [L13N],3.65
13,DECEKAYFYMSCQVKHKRIHSREK [L13Q],2.99
14,DECEKAYFYMSCGVKHKRIHSREK [L13G],3.24
15,DECEKAYFYMSCPVKHKRIHSREK [L13P],3.1
16,DECEKAYFYMSCIVKHKRIHSREK [L13I],2.29
17,DECEKAYFYMSCDVKHKRIHSREK [L13D],4.25
18,DECEKAYFYMSCCVKHKRIHSREK [L13C],3.27
19,DECEKAYFYMSCTVKHKRIHSREK [L13T],2.81
20,DECEKAYFYMSCSVKHKRIHSREK [L13S],2.79
21,DECEKAYFYMSCMVKHKRIHSREK [L13M],3.25
22,DECEKAYFYMSCFVKHKRIHSREK [L13F],3.18
23,DECEKAYFYMSCEVKHKRIHSREK [L13E],3.61
24,DECEKAYFYMSYLVKHKRIHSREK [C12Y],2.43

row,Variant,protein stability index
1,DECEKAYFYMSDLVKHKRIHSREK [C12D],4.16
2,DECEKAYFYMSKLVKHKRIHSREK [C12K],2.8
3,DECEKAYFYMSNLVKHKRIHSREK [C12N],3.38
4,DECEKAYFYMSWLVKHKRIHSREK [C12W],2.33
5,DECEKAYFYMSHLVKHKRIHSREK [C12H],3.12
6,DECEKAYFYMSLLVKHKRIHSREK [C12L],2.23
7,DECEKAYFYMSVLVKHKRIHSREK [C12V],2.42
8,DECEKAYFYMSMLVKHKRIHSREK [C12M],2.95
9,DECEKAYFYMSALVKHKRIHSREK [C12A],2.83
10,DECEKAYFYMSPLVKHKRIHSREK [C12P],3.05
11,DECEKAYFYMSGLVKHKRIHSREK [C12G],3.33
12,DECEKAYFYMSILVKHKRIHSREK [C12I],1.64
13,DECEKAYFYMSRLVKHKRIHSREK [C12R],2.96
14,DECEKAYFYMSTLVKHKRIHSREK [C12T],3.83
15,DECEKAYFYMSQLVKHKRIHSREK [C12Q],3.09
16,DECEKAYFYMSELVKHKRIHSREK [C12E],3.54
17,DECEKAYFYMSSLVKHKRIHSREK [C12S],3.68
18,DECEKAYFYMSFLVKHKRIHSREK [C12F],2.69
19,DECEKAYFKMSCLVKHKRIHSREK [Y9K],3.73
20,DECEKAYFIMSCLVKHKRIHSREK [Y9I],2.42
21,DECEKAYFLMSCLVKHKRIHSREK [Y9L],2.35
22,DECEKAYFGMSCLVKHKRIHSREK [Y9G],4.26
23,DECEKAYFEMSCLVKHKRIHSREK [Y9E],3
24,DECEKAYFPMSCLVKHKRIHSREK [Y9P],3.78

row,Variant,protein stability index
1,DECEKAYFCMSCLVKHKRIHSREK [Y9C],2.81
2,DECEKAYFFMSCLVKHKRIHSREK [Y9F],2.66
3,DECEKAYFVMSCLVKHKRIHSREK [Y9V],2.54
4,DECEKAYFTMSCLVKHKRIHSREK [Y9T],3.94
5,DECEKAYFRMSCLVKHKRIHSREK [Y9R],3.9
6,DECEKAYFHMSCLVKHKRIHSREK [Y9H],3.03
7,DECEKAYFAMSCLVKHKRIHSREK [Y9A],3.71
8,DECEKAYFMMSCLVKHKRIHSREK [Y9M],2.57
9,DECEKAYFWMSCLVKHKRIHSREK [Y9W],3.49
10,DECEKAYFSMSCLVKHKRIHSREK [Y9S],3.56
11,DECEKAYFDMSCLVKHKRIHSREK [Y9D],4.51
12,DECEKAYFQMSCLVKHKRIHSREK [Y9Q],3
13,DECEKAYFNMSCLVKHKRIHSREK [Y9N],3.93
14,DECEKAYFYMSCLVKHPRIHSREK [K17P],2.35
15,DECEKAYFYMSCLVKHGRIHSREK [K17G],2.42
16,DECEKAYFYMSCLVKHERIHSREK [K17E],2.54
17,DECEKAYFYMSCLVKHCRIHSREK [K17C],1.83
18,DECEKAYFYMSCLVKHHRIHSREK [K17H],2.05
19,DECEKAYFYMSCLVKHIRIHSREK [K17I],1.68
20,DECEKAYFYMSCLVKHQRIHSREK [K17Q],2.3
21,DECEKAYFYMSCLVKHDRIHSREK [K17D],2.85
22,DECEKAYFYMSCLVKHFRIHSREK [K17F],2.83
23,DECEKAYFYMSCLVKHNRIHSREK [K17N],2.45
24,DECEKAYFYMSCLVKHARIHSREK [K17A],2.94

row,Variant,protein stability index
1,DECEKAYFYMSCLVKHMRIHSREK [K17M],1.61
2,DECEKAYFYMSCLVKHLRIHSREK [K17L],1.91
3,DECEKAYFYMSCLVEHKRIHSREK [K15E],2.54
4,DECEKAYFYMSCLVWHKRIHSREK [K15W],1.53
5,DECEKAYFYMSCLVLHKRIHSREK [K15L],2.15
6,DECEKAYFYMSCLVAHKRIHSREK [K15A],2.56
7,DECEKAYFYMSCLVIHKRIHSREK [K15I],2.18
8,DECEKAYFYMSCLVNHKRIHSREK [K15N],3.16
9,DECEKAYFYMSCLVVHKRIHSREK [K15V],1.75
10,DECEKAYFYMSCLVMHKRIHSREK [K15M],1.9
11,DECEKAYFYMSCLVRHKRIHSREK [K15R],2.12
12,DECEKAYFYMSCLVYHKRIHSREK [K15Y],1.92
13,DECEKAYFYMSCLVPHKRIHSREK [K15P],2.02
14,DECEKAYFYMSCLVTHKRIHSREK [K15T],2.16
15,DECEKAYFYMSCLVDHKRIHSREK [K15D],3.24
16,DECEKAYFYMSCLVHHKRIHSREK [K15H],2.45
17,DECEKAYFYMSCLVSHKRIHSREK [K15S],2.34
18,DECEKAYFYMSCLVQHKRIHSREK [K15Q],2.3
19,DECEKAYFYMSCLVGHKRIHSREK [K15G],2.29
20,DECEKAYFYMSCLVFHKRIHSREK [K15F],1.87
21,DECEKAYFYMSCLVCHKRIHSREK [K15C],2.41
22,DECEKAYFYMSCLYKHKRIHSREK [V14Y],2.5

# Reference: the supplement of paper PMC10567573
